Experimental data published in PMC8666006 (Cancer cell, 2020).

Target: MutLα (MLH1-PMS2) (human, UniProt P40692 1-756; P54278 1-862)
Test: co-IP

Sequence of MutLα (MLH1-PMS2) (P40692 whole entry, chain 1 of 2): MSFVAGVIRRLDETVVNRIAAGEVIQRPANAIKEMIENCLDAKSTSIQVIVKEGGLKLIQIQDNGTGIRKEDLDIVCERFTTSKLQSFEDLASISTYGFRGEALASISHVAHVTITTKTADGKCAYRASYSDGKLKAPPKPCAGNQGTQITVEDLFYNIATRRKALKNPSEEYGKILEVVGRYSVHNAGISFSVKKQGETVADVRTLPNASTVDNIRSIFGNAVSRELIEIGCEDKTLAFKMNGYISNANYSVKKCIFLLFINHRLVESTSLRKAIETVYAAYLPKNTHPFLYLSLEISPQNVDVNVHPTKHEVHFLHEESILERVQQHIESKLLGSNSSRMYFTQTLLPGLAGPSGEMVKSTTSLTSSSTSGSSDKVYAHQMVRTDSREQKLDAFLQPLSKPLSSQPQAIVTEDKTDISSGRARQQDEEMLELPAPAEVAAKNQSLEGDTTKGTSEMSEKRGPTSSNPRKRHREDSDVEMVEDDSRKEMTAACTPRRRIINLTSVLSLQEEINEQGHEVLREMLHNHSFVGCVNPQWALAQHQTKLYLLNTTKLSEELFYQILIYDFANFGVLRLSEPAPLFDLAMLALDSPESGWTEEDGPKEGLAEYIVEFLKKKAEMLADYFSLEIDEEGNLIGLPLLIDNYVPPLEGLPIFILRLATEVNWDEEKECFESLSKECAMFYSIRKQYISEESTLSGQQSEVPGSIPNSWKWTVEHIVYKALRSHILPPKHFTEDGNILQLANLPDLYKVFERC
Sequence of MutLα (MLH1-PMS2) (P54278 whole entry, chain 2 of 2): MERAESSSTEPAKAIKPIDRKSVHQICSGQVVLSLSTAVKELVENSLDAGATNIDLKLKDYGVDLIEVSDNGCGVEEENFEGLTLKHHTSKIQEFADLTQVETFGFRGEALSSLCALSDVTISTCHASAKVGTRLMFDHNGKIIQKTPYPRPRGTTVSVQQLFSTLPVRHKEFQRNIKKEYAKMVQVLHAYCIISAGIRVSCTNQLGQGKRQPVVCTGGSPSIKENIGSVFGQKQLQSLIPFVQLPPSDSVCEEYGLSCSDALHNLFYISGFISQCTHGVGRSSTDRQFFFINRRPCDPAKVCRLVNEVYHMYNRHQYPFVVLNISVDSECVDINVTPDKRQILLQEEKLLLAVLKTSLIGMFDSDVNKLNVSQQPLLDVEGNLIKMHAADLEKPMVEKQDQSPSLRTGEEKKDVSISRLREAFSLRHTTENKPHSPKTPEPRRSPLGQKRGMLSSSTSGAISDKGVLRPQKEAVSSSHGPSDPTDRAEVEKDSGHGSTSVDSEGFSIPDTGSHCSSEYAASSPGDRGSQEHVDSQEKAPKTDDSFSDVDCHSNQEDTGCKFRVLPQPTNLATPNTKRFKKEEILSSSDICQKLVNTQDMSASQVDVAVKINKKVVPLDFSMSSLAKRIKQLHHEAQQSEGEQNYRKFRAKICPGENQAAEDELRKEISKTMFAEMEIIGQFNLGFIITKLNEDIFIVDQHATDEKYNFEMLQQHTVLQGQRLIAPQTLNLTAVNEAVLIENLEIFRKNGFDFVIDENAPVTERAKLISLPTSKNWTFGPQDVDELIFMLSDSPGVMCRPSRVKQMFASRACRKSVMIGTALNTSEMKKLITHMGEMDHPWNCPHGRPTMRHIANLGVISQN

B1: Exo1-FF-AA (enzyme, human, UniProt Q9UQ84 1-846, looked up)
chain: MGIQGLLQFIKEASEPIHVRKYKGQVVAVDTYCWLHKGAIACAEKLAKGEPTDRYVGFCMKFVNMLLSHGIKPILVFDGCTLPSKKEVERSRRERRQANLLKGKQLLREGKVSEARECFTRSINITHAMAHKVIKAARSQGVDCLVAPYEADAQLAYLNKAGIVQAIITEDSDLLAFGCKKVILKMDQFGNGLEIDQARLGMCRQLGDVFTEEKFRYMCILSGCDYLSSLRGIGLAKACKVLRLANNPDIVKVIKKIGHYLKMNITVPEDYINGFIRANNTFLYQLVFDPIKRKLIPLNAYEDDVDPETLSYAGQYVDDSIALQIALGNKDINTFEQIDDYNPDTAMPAHSRSHSWDDKTCQKSANVSSIWHRNYSPRPESGTVSDAPQLKENPSTVGVERVISTKGLNLPRKSSIVKRPRSAELSEDDLLSQYSLSFTKKTKKNSSEGNKSLSFSEVFVPDLVNGPTNKKSVSTPPRTRNKFATFLQRKNEESGAVVVPGTRSRAACSSDSTDCVSNKVSIQPLDETAVTDKENNLHESEYGDQEGKRLVDTDVARNSSDDIPNNHIPGDHIPDKATVFTDEESYSFESSKFTRTISPPTLGTLRSCFSWSGGLGDFSRTPSPSPSTALQQFRRKSDSPTSLPENNMSDVSQLKSEESSDDESHPLREEACSSQSQESGEFSLQSSNASKLSQCSSKDSDSEESDCNIKLLDSQSDQTSKLRLSHFSKKDTPLRNKVPGLYKSSSADSLSTTKIKPLGPARASGLSKKPASIQKRKHHNAENKPGLQIKLNELWKNFGFKKDSEKLPPCKKPLSPVRDNIQLTPEAEEDIFNKPECGRVQRAIFQ
Q: Does B1 bind?
A: Result: binds

B2: Exo1-ΔC (domain or fragment, human, UniProt Q9UQ84 1-602, looked up)
chain: MGIQGLLQFIKEASEPIHVRKYKGQVVAVDTYCWLHKGAIACAEKLAKGEPTDRYVGFCMKFVNMLLSHGIKPILVFDGCTLPSKKEVERSRRERRQANLLKGKQLLREGKVSEARECFTRSINITHAMAHKVIKAARSQGVDCLVAPYEADAQLAYLNKAGIVQAIITEDSDLLAFGCKKVILKMDQFGNGLEIDQARLGMCRQLGDVFTEEKFRYMCILSGCDYLSSLRGIGLAKACKVLRLANNPDIVKVIKKIGHYLKMNITVPEDYINGFIRANNTFLYQLVFDPIKRKLIPLNAYEDDVDPETLSYAGQYVDDSIALQIALGNKDINTFEQIDDYNPDTAMPAHSRSHSWDDKTCQKSANVSSIWHRNYSPRPESGTVSDAPQLKENPSTVGVERVISTKGLNLPRKSSIVKRPRSAELSEDDLLSQYSLSFTKKTKKNSSEGNKSLSFSEVFVPDLVNGPTNKKSVSTPPRTRNKFATFLQRKNEESGAVVVPGTRSRFFCSSDSTDCVSNKVSIQPLDETAVTDKENNLHESEYGDQEGKRLVDTDVARNSSDDIPNNHIPGDHIPDKATVFTDEESYSFESSKFTRTISPPTL
Q: Does B2 bind?
A: Result: binds
